Common to all, as to details: protein: recombinant; tags: Ni-chelate purified; hairpin with mid-helix bulge C and hexaloop
In data set [1] the target is T1, IRP1 (iron regulatory protein 1) (rabbit, UniProt Q01059 1-889).
T1 sequence: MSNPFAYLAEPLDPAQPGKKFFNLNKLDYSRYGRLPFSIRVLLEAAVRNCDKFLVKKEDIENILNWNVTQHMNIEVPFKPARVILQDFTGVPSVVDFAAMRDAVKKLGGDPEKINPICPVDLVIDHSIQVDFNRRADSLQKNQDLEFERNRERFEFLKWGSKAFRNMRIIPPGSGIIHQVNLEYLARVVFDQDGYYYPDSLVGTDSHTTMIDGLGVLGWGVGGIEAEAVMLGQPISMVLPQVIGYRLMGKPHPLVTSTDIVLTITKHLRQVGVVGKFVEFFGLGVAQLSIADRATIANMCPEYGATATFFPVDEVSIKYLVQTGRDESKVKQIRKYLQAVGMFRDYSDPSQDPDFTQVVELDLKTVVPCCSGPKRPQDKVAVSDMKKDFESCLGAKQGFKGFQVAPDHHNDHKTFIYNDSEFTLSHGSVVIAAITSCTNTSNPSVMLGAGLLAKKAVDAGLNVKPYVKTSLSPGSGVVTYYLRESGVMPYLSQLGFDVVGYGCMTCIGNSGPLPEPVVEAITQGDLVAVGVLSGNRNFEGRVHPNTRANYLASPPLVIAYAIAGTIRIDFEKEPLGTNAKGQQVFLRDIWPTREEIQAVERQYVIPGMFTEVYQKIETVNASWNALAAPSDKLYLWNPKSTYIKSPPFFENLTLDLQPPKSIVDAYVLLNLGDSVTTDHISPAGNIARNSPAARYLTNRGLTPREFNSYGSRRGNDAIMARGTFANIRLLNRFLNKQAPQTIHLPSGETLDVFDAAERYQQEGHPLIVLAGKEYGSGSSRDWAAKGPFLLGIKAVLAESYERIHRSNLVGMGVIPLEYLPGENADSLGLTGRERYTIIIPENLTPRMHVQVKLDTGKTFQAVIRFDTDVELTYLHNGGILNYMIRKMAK
Briefly: stopped-flow fluorescence anisotropy (koff/kon); 150 mM KCl; kon 209, koff 6.3; 40 mM HEPES pH 7.2, 100 mM KCl, 1 mM MgCl2 (Methods; not listed in the Figure 2 legend), 5% glycerol, 2% 2-mercaptoethanol, 25 C; RNA 50 nM with IRP1 0.05-1 uM; eIF4F 0.1 uM with RNA 0.1-0.5 uM.

Data set [2] concerns the target T1, IRP1 (iron regulatory protein 1). Briefly: stopped-flow fluorescence anisotropy (koff/kon); no Mn2+, 100 mM KCl; kon 400 uM-1 s-1, koff 6.2 s-1; 40 mM HEPES pH 7.2, 100 mM KCl, 1 mM MgCl2 (Methods; not listed in the Figure 2 legend), 5% glycerol, 2% 2-mercaptoethanol, 25 C; RNA 50 nM with IRP1 0.05-1 uM; eIF4F 0.1 uM with RNA 0.1-0.5 uM.
The target is the same in data set [3]. Briefly: stopped-flow fluorescence anisotropy (koff/kon); 5 uM Mn2+; kon 176, koff 9.7; 40 mM HEPES pH 7.2, 100 mM KCl, 1 mM MgCl2 (Methods; not listed in the Figure 2 legend), 5% glycerol, 2% 2-mercaptoethanol, 25 C; RNA 50 nM with IRP1 0.05-1 uM; eIF4F 0.1 uM with RNA 0.1-0.5 uM.
Data set [4] shares this target. As to the kind of experiment: stopped-flow fluorescence anisotropy (koff/kon); no Mn2+, 100 mM KCl; kon 51.5 uM-1 s-1, koff 7.0 s-1; 40 mM HEPES pH 7.2, 100 mM KCl, 1 mM MgCl2 (Methods; not listed in the Figure 2 legend), 5% glycerol, 2% 2-mercaptoethanol, 25 C; RNA 50 nM with IRP1 0.05-1 uM; eIF4F 0.1 uM with RNA 0.1-0.5 uM.
The target is the same in data set [5]. As to the kind of experiment: stopped-flow fluorescence anisotropy (koff/kon); 150 mM KCl; kon 39, koff 7.4; 40 mM HEPES pH 7.2, 100 mM KCl, 1 mM MgCl2 (Methods; not listed in the Figure 2 legend), 5% glycerol, 2% 2-mercaptoethanol, 25 C; RNA 50 nM with IRP1 0.05-1 uM; eIF4F 0.1 uM with RNA 0.1-0.5 uM.
Data set [6] has the same target. As to the kind of experiment: stopped-flow fluorescence anisotropy (koff/kon); 5 uM Mn2+; kon 35.2, koff 7.6; 40 mM HEPES pH 7.2, 100 mM KCl, 1 mM MgCl2 (Methods; not listed in the Figure 2 legend), 5% glycerol, 2% 2-mercaptoethanol, 25 C; RNA 50 nM with IRP1 0.05-1 uM; eIF4F 0.1 uM with RNA 0.1-0.5 uM.

B1: FRT IRE-RNA, fluorescein labeled (FIFRT IRE-RNA) (structured_RNA)
RNA: GUUCUUGCUUCAACAGUGUUUGAACGGAAC
As to B1, the Kd stood at 30 ± 0.7 nM in data set [1], 15.5 ± 0.5 nM in data set [2] and 55 ± 2.7 nM in data set [3].

B2: ACO2 IRE-RNA, fluorescein labeled (FIACO2 IRE-RNA) (structured_RNA)
RNA: CCUCAUCUUUGUCAGUGCACAAAAUGGCG
In the case of B2, the Kd worked out at 136 ± 2.9 nM in data set [4], 190 ± 9 nM in data set [5] and 217 ± 7.6 nM in data set [6].

Source of the values: paper PMC4041422, “Rapid kinetics of iron responsive element (IRE) RNA/iron regulatory protein 1 and IRE-RNA/eIF4F complexes respond differently to metal ions”.
